Reference: US20130102644, “Prophylactic or Ameliorating Agent for Genetic Diseases” (published 2013)

Target: hnRNP A1 (Homo sapiens, UniProt P09651 P09651:1-372)
Assay: EMSA; 100-400 ng protein; same as mutant at low protein, less efficient at 400 ng; 80 mM KCl, pH 7.9, E. coli tRNA, 20 C
Conditions: tags: N-terminal GST (GST-pcDNA3), expressed in HEK293T; label: 32P
Description: Human hnRNP A1 cDNA was amplified by PCR. The obtained amplified fragment was inserted to between the BamHI and NotI sites of GST-pcDNA3 to prepare a GST-hnRNP A1 plasmid. The whole sequence of this plasmid was determined to confirm the plasmid to comprise the fragment of interest. HEK293T cells were transfected with this GST-hnRNP A1 plasmid, and the obtained transformed cells were cultured. A whole cell lysate was prepared from the collected transformed cells according to the method described in the document (Methods Mol Biol (2008) 488, 357-365). The GST-hnRNP A1 protein was purified from the whole cell lysate using an anti-GST affinity resin (manufactured by Sigma-Aldrich Corp.), basically as described in the document (The Journal of Biological Chemistry (2002) 277, 7540-7545) except that the resin was washed twice with buffer solution E (20 mM Hepes-KOH (pH 7.9), 1000 mM KCl, 0.2 mM EDTA, 10% glycerol, and 1 mM DTT) before elution from the column. Subsequently, mutant exon 31 RNA or wild-type exon 31 RNA labeled with ³²P was mixed with the GST-hnRNP A1 protein and incubated at 20° C. for 30 minutes. The obtained complex was subjected to gel mobility shift assay. […]
The gel mobility shift assay was basically conducted according to the method described in the document (Nucleic Acids Research (1995) 23, 3638-3641). […] Bands were analyzed by autoradiography. […]

Sequence of hnRNP A1 (P09651 whole entry, one chain of several): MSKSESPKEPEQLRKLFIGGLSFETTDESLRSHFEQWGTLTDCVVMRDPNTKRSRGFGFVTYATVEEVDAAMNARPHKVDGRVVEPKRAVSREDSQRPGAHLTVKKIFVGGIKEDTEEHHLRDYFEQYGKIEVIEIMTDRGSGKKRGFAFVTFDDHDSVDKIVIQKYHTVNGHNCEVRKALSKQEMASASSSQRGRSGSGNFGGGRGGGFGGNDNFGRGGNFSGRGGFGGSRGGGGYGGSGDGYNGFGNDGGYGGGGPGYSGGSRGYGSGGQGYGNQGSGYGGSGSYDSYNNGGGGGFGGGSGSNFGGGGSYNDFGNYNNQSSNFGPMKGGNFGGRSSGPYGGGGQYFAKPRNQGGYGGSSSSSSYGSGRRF

B1: dystrophin exon 31 RNA wild-type (ssRNA)
RNA: AAAAUCCAAUCUGAUUUGACAAGUCAUGAGAUCAGUUUAGAAGAAAUGAAGAAACAUAAUCAGGGGAAGGAGGCUGCCCAAAGAGUCCUGUCUCAGAUUGAUGUUGCACAG
B1: binds.
